Molecular target: T1, Ligase IV (UniProt P49917 1-911)
T1 construct: DNA Ligase IV, the subunit of XL; also called DNA Ligase IV
T1 sequence (looked up): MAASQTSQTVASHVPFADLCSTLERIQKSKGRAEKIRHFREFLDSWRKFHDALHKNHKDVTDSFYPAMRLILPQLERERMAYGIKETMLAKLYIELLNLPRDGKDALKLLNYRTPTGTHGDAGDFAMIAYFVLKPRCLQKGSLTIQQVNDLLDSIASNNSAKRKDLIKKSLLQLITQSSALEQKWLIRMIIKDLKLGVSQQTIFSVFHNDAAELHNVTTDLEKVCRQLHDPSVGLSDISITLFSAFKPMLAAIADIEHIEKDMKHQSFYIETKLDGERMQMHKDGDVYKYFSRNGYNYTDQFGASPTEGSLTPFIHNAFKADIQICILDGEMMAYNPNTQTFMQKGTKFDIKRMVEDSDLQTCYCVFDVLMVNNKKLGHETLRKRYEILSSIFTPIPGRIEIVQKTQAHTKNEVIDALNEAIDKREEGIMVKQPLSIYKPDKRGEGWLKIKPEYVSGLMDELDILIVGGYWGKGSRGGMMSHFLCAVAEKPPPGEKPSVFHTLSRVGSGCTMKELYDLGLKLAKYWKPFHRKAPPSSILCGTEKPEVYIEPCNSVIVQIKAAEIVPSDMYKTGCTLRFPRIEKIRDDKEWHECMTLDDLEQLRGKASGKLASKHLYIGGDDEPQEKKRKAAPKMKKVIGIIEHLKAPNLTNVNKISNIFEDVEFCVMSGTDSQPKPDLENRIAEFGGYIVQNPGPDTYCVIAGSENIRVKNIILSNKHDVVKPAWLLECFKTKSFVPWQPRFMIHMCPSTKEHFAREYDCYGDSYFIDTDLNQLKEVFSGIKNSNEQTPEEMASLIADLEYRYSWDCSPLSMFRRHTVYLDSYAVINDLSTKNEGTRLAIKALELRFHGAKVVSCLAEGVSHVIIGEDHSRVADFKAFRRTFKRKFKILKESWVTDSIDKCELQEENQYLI
Conditions: both partners purified

stoichiometry N: < 1 XRCC4 dimer to Ligase IV molar ratio
B1: XRCC4 (natural protein, UniProt Q13426 1-336, looked up)
chain: MERKISRIHLVSEPSITHFLQVSWEKTLESGFVITLTDGHSAWTGTVSESEISQEADDMAMEKGKYVGELRKALLSGAGPADVYTFNFSKESCYFFFEKNLKDVSFRLGSFNLEKVENPAEVIRELICYCLDTIAENQAKNEHLQKENERLLRDWNDVQGRFEKCVSAKEALETDLYKRFILVLNEKKTKIRSLHNKLLNAAQEREKDIKQEGETAICSEMTADRDPVYDESTDEESENQTDLSGLASAAVSKDDSIISSLDVTDIAPSRKRRQRMQRNLGTEPKMAPQENQLQEKENSRPDSSLPETSKKEHISAENMSLETLRNSSPEDLFDEI
notes: also called XRCC4 homodimer

From publication PMC3689955 (The Journal of Biological Chemistry, 2013)
